These results are taken from publication PMC4081048.

What is called IC50 is the midpoint of a concentration-inhibition curve. Read a high IC50 as lower potency.

This experiment has as its target T1, GST-NHERF1-PDZ2 (PDZ2 domain of Na+/H+ exchanger regulatory factor 1 fused to GST).
T1 sequence (O14745 whole entry, species assumed, looked up): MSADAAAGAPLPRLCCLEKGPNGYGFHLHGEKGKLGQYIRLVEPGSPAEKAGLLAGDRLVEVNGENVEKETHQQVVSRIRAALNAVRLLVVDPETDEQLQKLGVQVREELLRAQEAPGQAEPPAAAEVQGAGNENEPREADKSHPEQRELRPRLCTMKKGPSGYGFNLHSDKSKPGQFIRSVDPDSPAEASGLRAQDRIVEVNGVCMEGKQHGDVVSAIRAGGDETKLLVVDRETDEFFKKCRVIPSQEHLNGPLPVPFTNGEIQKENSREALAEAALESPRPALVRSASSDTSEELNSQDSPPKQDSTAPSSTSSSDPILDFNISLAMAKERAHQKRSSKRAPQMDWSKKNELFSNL
Briefly: AlphaScreen or HTRF.

On to “Flag-WT CFTR (cystic fibrosis transmembrane-conductance regulator, wild type) (from UniProt P13569 1-1480) (natural protein)”, for which the IC50 was determined as 89.3 nM.

As to “Flag-ΔF508 CFTR (CFTR with deletion of phenylalanine at residue 508) (from UniProt P13569 1-1480) (natural protein)”, the half-maximal inhibitory concentration (IC50) was found to be 442 nM. Against the preceding substance, the IC50 is about 4.9-fold higher.
